Data on one molecule can be found in paper PMC12561415, “ACSS2/AATF Drives Soluble FasL‐Mediated CD8^+ T Cell Apoptosis in Pancreatic Neuroendocrine Tumors” (Advanced Science, 2025).

This assay concerns the target T1, Recombinant human ACSS2 (human, UniProt Q9NR19 1-701).
T1 construct: Recombinant human ACSS2, immobilised on a CM5 chip for SPR
The experiment in a line: SPR; Biacore 8K, 25 °C, HBS-EP running buffer; ACSS2 amine-coupled to a CM5 chip (5 µg/mL in 10 mM sodium acetate pH 5.5); AATF injected at 12.5-400 nM; multi-cycle, 120 s association, 120 s dissociation, 30 µL/min. The note with it: both partners purified.

One may read the Kd as the free concentration of one partner at which half of the binding sites on the other are occupied at equilibrium, for simple one-to-one binding.

T1 sequence (Q9NR19 whole entry): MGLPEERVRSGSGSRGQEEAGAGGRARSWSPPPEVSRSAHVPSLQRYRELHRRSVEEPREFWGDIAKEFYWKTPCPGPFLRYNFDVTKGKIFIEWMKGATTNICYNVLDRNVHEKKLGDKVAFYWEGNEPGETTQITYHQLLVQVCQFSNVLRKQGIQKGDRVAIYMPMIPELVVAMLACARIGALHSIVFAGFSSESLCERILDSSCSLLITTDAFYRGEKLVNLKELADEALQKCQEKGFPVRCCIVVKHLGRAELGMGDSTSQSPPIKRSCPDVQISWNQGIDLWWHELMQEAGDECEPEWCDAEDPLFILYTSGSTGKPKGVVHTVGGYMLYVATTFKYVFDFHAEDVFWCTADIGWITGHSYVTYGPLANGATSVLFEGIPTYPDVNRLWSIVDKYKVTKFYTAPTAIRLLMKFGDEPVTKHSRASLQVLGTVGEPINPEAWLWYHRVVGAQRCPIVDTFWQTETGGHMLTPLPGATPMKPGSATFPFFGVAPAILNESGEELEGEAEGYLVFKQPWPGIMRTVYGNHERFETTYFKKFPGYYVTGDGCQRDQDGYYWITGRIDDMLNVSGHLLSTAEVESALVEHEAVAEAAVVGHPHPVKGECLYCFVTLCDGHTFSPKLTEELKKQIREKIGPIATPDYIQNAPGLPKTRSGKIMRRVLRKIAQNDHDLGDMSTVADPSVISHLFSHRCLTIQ

B1: Recombinant human AATF (natural protein, UniProt Q9NY61 1-560, looked up)
chain: MAGPQPLALQLEQLLNPRPSEADPEADPEEATAARVIDRFDEGEDGEGDFLVVGSIRKLASASLLDTDKRYCGKTTSRKAWNEDHWEQTLPGSSDEEISDEEGSGDEDSEGLGLEEYDEDDLGAAEEQECGDHRESKKSRSHSAKTPGFSVQSISDFEKFTKGMDDLGSSEEEEDEESGMEEGDDAEDSQGESEEDRAGDRNSEDDGVVMTFSSVKVSEEVEKGRAVKNQIALWDQLLEGRIKLQKALLTTNQLPQPDVFPLFKDKGGPEFSSALKNSHKALKALLRSLVGLQEELLFQYPDTRYLVDGTKPNAGSEEISSEDDELVEEKKQQRRRVPAKRKLEMEDYPSFMAKRFADFTVYRNRTLQKWHDKTKLASGKLGKGFGAFERSILTQIDHILMDKERLLRRTQTKRSVYRVLGKPEPAAQPVPESLPGEPEILPQAPANAHLKDLDEEIFDDDDFYHQLLRELIERKTSSLDPNDQVAMGRQWLAIQKLRSKIHKKVDRKASKGRKLRFHVLSKLLSFMAPIDHTTMNDDARTELYRSLFGQLHPPDEGHGD
notes: Recombinant human AATF, the analyte in SPR; also called Che-1
For B1, the Kd was determined as 33.3 ± 1.7 nM.
